Variants at the floor of the assay were thinned out.
Assays:
biotinyl-Ile-oxazolone = experiment: self-aminoacylation, catalytic enhancement (BIO) (fold over background); higher = more active; k-Seq, kA / k0A0; sequences stand for … in GGGAAUGGAUCCACAUCUACGAAUUC…UUCACUGCAGACUUGACGAAGCUG
Summary of the method: (§1)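 The uncatalyzed rate is the low-activity peak of a bimodal Gaussian fit, and catalytic enhancement is median kA divided by it. The kA values came from pseudo-first-order fits, with 1000 bootstraps, of per-sequence fraction reacted measured by streptavidin capture, triplicate qPCR and Illumina sequencing. Mutagenized RNA pools with a 21-nt variable region (0.43 μM) were reacted with each biotinyl-aminoacyl-oxazolone at 2–1250 μM in 50 μL HEPES/NaCl/KCl/MgCl2/CaCl2 buffer with 5% acetonitrile, pH 6.9–7.0, for 90 minutes at room temperature.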

biotinyl-Trp-oxazolone = experiment: self-aminoacylation, catalytic enhancement (BWO) (fold over background); higher = more active; k-Seq, kA / k0A0; sequences stand for … in GGGAAUGGAUCCACAUCUACGAAUUC…UUCACUGCAGACUUGACGAAGCUG
Summary of the method: as §1

biotinyl-Val-oxazolone = experiment: self-aminoacylation, catalytic enhancement (BVO) (fold over background); higher = more active; k-Seq, kA / k0A0; sequences stand for … in GGGAAUGGAUCCACAUCUACGAAUUC…UUCACUGCAGACUUGACGAAGCUG
Summary of the method: as §1

biotinyl-Phe-oxazolone = experiment: self-aminoacylation, catalytic enhancement (BFO) (fold over background); higher = more active; k-Seq, kA / k0A0; sequences stand for … in GGGAAUGGAUCCACAUCUACGAAUUC…UUCACUGCAGACUUGACGAAGCUG
Summary of the method: as §1

biotinyl-Leu-oxazolone = experiment: self-aminoacylation, catalytic enhancement (BLO) (fold over background); higher = more active; k-Seq, kA / k0A0; sequences stand for … in GGGAAUGGAUCCACAUCUACGAAUUC…UUCACUGCAGACUUGACGAAGCUG
Summary of the method: as §1

biotinyl-Met-oxazolone = experiment: self-aminoacylation, catalytic enhancement (BMO) (fold over background); higher = more active; k-Seq, kA / k0A0; sequences stand for … in GGGAAUGGAUCCACAUCUACGAAUUC…UUCACUGCAGACUUGACGAAGCUG
Summary of the method: as §1

CUACACUUCAAGCAAUAGGUC [Fam1B.1 aminoacylation ribozyme variant]
self-aminoacylation (biotinyl-Ile-oxazolone): 0.542
self-aminoacylation (biotinyl-Trp-oxazolone): 0.506
self-aminoacylation (biotinyl-Val-oxazolone): 0.585
self-aminoacylation (biotinyl-Phe-oxazolone): 1.06
self-aminoacylation (biotinyl-Leu-oxazolone): 0.527
self-aminoacylation (biotinyl-Met-oxazolone): 0.44

CUACACUUCAAGCAAUCAGUC [Fam1B.1 aminoacylation ribozyme variant]
self-aminoacylation (biotinyl-Ile-oxazolone): 0.668
self-aminoacylation (biotinyl-Trp-oxazolone): 6.32
self-aminoacylation (biotinyl-Val-oxazolone): 0.886
self-aminoacylation (biotinyl-Phe-oxazolone): 21
self-aminoacylation (biotinyl-Leu-oxazolone): 0.754
self-aminoacylation (biotinyl-Met-oxazolone): 0.718

CUACACUUCAAGCAAUCGAUC [Fam1B.1 aminoacylation ribozyme variant]
self-aminoacylation (biotinyl-Ile-oxazolone): 0.527
self-aminoacylation (biotinyl-Trp-oxazolone): 0.769
self-aminoacylation (biotinyl-Val-oxazolone): 0.649
self-aminoacylation (biotinyl-Phe-oxazolone): 2.02
self-aminoacylation (biotinyl-Leu-oxazolone): 0.458
self-aminoacylation (biotinyl-Met-oxazolone): 0.404

CUACACUUCAAGCUAUCGGUC [Fam1B.1 aminoacylation ribozyme variant]
self-aminoacylation (biotinyl-Ile-oxazolone): 0.87
self-aminoacylation (biotinyl-Trp-oxazolone): 0.608
self-aminoacylation (biotinyl-Val-oxazolone): 0.876
self-aminoacylation (biotinyl-Phe-oxazolone): 0.833
self-aminoacylation (biotinyl-Leu-oxazolone): 0.692
self-aminoacylation (biotinyl-Met-oxazolone): 0.746

CUACACUUCAUGCAAUCGGUC [Fam1B.1 aminoacylation ribozyme variant]
self-aminoacylation (biotinyl-Ile-oxazolone): 0.707
self-aminoacylation (biotinyl-Trp-oxazolone): 0.496
self-aminoacylation (biotinyl-Val-oxazolone): 0.693
self-aminoacylation (biotinyl-Phe-oxazolone): 0.689
self-aminoacylation (biotinyl-Leu-oxazolone): 0.516
self-aminoacylation (biotinyl-Met-oxazolone): 0.623

CUACAGCAAACAAUCGGUCUG [Fam1A.1 aminoacylation ribozyme variant]
self-aminoacylation (biotinyl-Ile-oxazolone): 0.48
self-aminoacylation (biotinyl-Trp-oxazolone): 0.574
self-aminoacylation (biotinyl-Val-oxazolone): 0.65
self-aminoacylation (biotinyl-Phe-oxazolone): 0.421
self-aminoacylation (biotinyl-Leu-oxazolone): 0.577
self-aminoacylation (biotinyl-Met-oxazolone): 0.482

CUACAUCAAACAACCGGUCUG [Fam1A.1 aminoacylation ribozyme variant]
self-aminoacylation (biotinyl-Ile-oxazolone): 0.885
self-aminoacylation (biotinyl-Trp-oxazolone): 1.47
self-aminoacylation (biotinyl-Val-oxazolone): 1.11
self-aminoacylation (biotinyl-Phe-oxazolone): 1.22
self-aminoacylation (biotinyl-Leu-oxazolone): 1.14
self-aminoacylation (biotinyl-Met-oxazolone): 1.31

CUACAUCAAACAAUCGGUCUC [Fam1A.1 aminoacylation ribozyme variant]
self-aminoacylation (biotinyl-Ile-oxazolone): 0.575
self-aminoacylation (biotinyl-Trp-oxazolone): 0.882
self-aminoacylation (biotinyl-Val-oxazolone): 0.779
self-aminoacylation (biotinyl-Phe-oxazolone): 1.64
self-aminoacylation (biotinyl-Leu-oxazolone): 0.532
self-aminoacylation (biotinyl-Met-oxazolone): 0.683

CUACAUCAAACAAUCGGUGUG [Fam1A.1 aminoacylation ribozyme variant]
self-aminoacylation (biotinyl-Ile-oxazolone): 0.722
self-aminoacylation (biotinyl-Trp-oxazolone): 0.626
self-aminoacylation (biotinyl-Val-oxazolone): 0.803
self-aminoacylation (biotinyl-Phe-oxazolone): 0.672
self-aminoacylation (biotinyl-Leu-oxazolone): 1.16
self-aminoacylation (biotinyl-Met-oxazolone): 1.03

CUACCGCAAACAAUCGGUCUG [Fam1A.1 aminoacylation ribozyme variant]
self-aminoacylation (biotinyl-Ile-oxazolone): 0.857
self-aminoacylation (biotinyl-Trp-oxazolone): 0.689
self-aminoacylation (biotinyl-Val-oxazolone): 0.961
self-aminoacylation (biotinyl-Phe-oxazolone): 2.36
self-aminoacylation (biotinyl-Leu-oxazolone): 0.896
self-aminoacylation (biotinyl-Met-oxazolone): 0.981

CUACCUCAAAAAAUCGGUCUG [Fam1A.1 aminoacylation ribozyme variant]
self-aminoacylation (biotinyl-Ile-oxazolone): 1.02
self-aminoacylation (biotinyl-Trp-oxazolone): 1.3
self-aminoacylation (biotinyl-Val-oxazolone): 1.01
self-aminoacylation (biotinyl-Phe-oxazolone): 1.28
self-aminoacylation (biotinyl-Leu-oxazolone): 1.49
self-aminoacylation (biotinyl-Met-oxazolone): 1.41

CUACCUCAAACAAUCAGUCUG [Fam1A.1 aminoacylation ribozyme variant]
self-aminoacylation (biotinyl-Ile-oxazolone): 0.649
self-aminoacylation (biotinyl-Trp-oxazolone): 0.702
self-aminoacylation (biotinyl-Val-oxazolone): 0.647
self-aminoacylation (biotinyl-Phe-oxazolone): 1.74
self-aminoacylation (biotinyl-Leu-oxazolone): 0.671
self-aminoacylation (biotinyl-Met-oxazolone): 0.588

CUACCUCAAACAAUCGGUCUU [Fam1A.1 aminoacylation ribozyme variant]
self-aminoacylation (biotinyl-Ile-oxazolone): 0.996
self-aminoacylation (biotinyl-Trp-oxazolone): 1.65
self-aminoacylation (biotinyl-Val-oxazolone): 0.865
self-aminoacylation (biotinyl-Phe-oxazolone): 1.34
self-aminoacylation (biotinyl-Leu-oxazolone): 0.784
self-aminoacylation (biotinyl-Met-oxazolone): 0.623

CUACCUCAAACAAUCGGUGUG [Fam1A.1 aminoacylation ribozyme variant]
self-aminoacylation (biotinyl-Ile-oxazolone): 1.19
self-aminoacylation (biotinyl-Trp-oxazolone): 0.845
self-aminoacylation (biotinyl-Val-oxazolone): 1.11
self-aminoacylation (biotinyl-Phe-oxazolone): 0.583
self-aminoacylation (biotinyl-Leu-oxazolone): 2.02
self-aminoacylation (biotinyl-Met-oxazolone): 0.952

CUACCUCAAACAAUUGGUCUG [Fam1A.1 aminoacylation ribozyme variant]
self-aminoacylation (biotinyl-Ile-oxazolone): 1.08
self-aminoacylation (biotinyl-Trp-oxazolone): 0.733
self-aminoacylation (biotinyl-Val-oxazolone): 1.04
self-aminoacylation (biotinyl-Phe-oxazolone): 0.81
self-aminoacylation (biotinyl-Leu-oxazolone): 0.824
self-aminoacylation (biotinyl-Met-oxazolone): 1.08

CUACGUCAAACAAUCCGUCUG [Fam1A.1 aminoacylation ribozyme variant]
self-aminoacylation (biotinyl-Ile-oxazolone): 1.25
self-aminoacylation (biotinyl-Trp-oxazolone): 1.18
self-aminoacylation (biotinyl-Val-oxazolone): 1.24
self-aminoacylation (biotinyl-Phe-oxazolone): 2.75
self-aminoacylation (biotinyl-Leu-oxazolone): 0.974
self-aminoacylation (biotinyl-Met-oxazolone): 1.43

CUACGUCAAACAAUCGGUCUC [Fam1A.1 aminoacylation ribozyme variant]
self-aminoacylation (biotinyl-Ile-oxazolone): 0.998
self-aminoacylation (biotinyl-Trp-oxazolone): 1.32
self-aminoacylation (biotinyl-Val-oxazolone): 1.04
self-aminoacylation (biotinyl-Phe-oxazolone): 1.24
self-aminoacylation (biotinyl-Leu-oxazolone): 0.765
self-aminoacylation (biotinyl-Met-oxazolone): 1.09

CUACGUCAAACUAUCGGUCUG [Fam1A.1 aminoacylation ribozyme variant]
self-aminoacylation (biotinyl-Ile-oxazolone): 1.58
self-aminoacylation (biotinyl-Trp-oxazolone): 1.58
self-aminoacylation (biotinyl-Val-oxazolone): 1.76
self-aminoacylation (biotinyl-Phe-oxazolone): 5.88
self-aminoacylation (biotinyl-Leu-oxazolone): 1.72
self-aminoacylation (biotinyl-Met-oxazolone): 1.95

CUACGUCAAGCAAUCGGUCUG [Fam1A.1 aminoacylation ribozyme variant]
self-aminoacylation (biotinyl-Ile-oxazolone): 1.63
self-aminoacylation (biotinyl-Trp-oxazolone): 1.17
self-aminoacylation (biotinyl-Val-oxazolone): 1.72
self-aminoacylation (biotinyl-Phe-oxazolone): 1.88
self-aminoacylation (biotinyl-Leu-oxazolone): 1.47
self-aminoacylation (biotinyl-Met-oxazolone): 1.39

CUACUACAAACAAUCGGUCAG [Fam1A.1 aminoacylation ribozyme variant]
self-aminoacylation (biotinyl-Ile-oxazolone): 0.561
self-aminoacylation (biotinyl-Trp-oxazolone): 0.537
self-aminoacylation (biotinyl-Val-oxazolone): 0.646
self-aminoacylation (biotinyl-Phe-oxazolone): 0.636
self-aminoacylation (biotinyl-Leu-oxazolone): 0.414
self-aminoacylation (biotinyl-Met-oxazolone): 0.547

CUACUACAAACAAUCUGUCUG [Fam1A.1 aminoacylation ribozyme variant]
self-aminoacylation (biotinyl-Ile-oxazolone): 0.787
self-aminoacylation (biotinyl-Trp-oxazolone): 0.45
self-aminoacylation (biotinyl-Val-oxazolone): 0.835
self-aminoacylation (biotinyl-Phe-oxazolone): 0.733
self-aminoacylation (biotinyl-Leu-oxazolone): 0.647
self-aminoacylation (biotinyl-Met-oxazolone): 0.624

CUACUACAAACAUUCGGUCUG [Fam1A.1 aminoacylation ribozyme variant]
self-aminoacylation (biotinyl-Ile-oxazolone): 1.34
self-aminoacylation (biotinyl-Trp-oxazolone): 1.18
self-aminoacylation (biotinyl-Val-oxazolone): 1.38
self-aminoacylation (biotinyl-Phe-oxazolone): 1.33
self-aminoacylation (biotinyl-Leu-oxazolone): 1.01
self-aminoacylation (biotinyl-Met-oxazolone): 1.23

CUACUACAAAGAAUCGGUCUG [Fam1A.1 aminoacylation ribozyme variant]
self-aminoacylation (biotinyl-Ile-oxazolone): 0.781
self-aminoacylation (biotinyl-Trp-oxazolone): 0.8
self-aminoacylation (biotinyl-Val-oxazolone): 0.54
self-aminoacylation (biotinyl-Phe-oxazolone): 0.547
self-aminoacylation (biotinyl-Leu-oxazolone): 0.775
self-aminoacylation (biotinyl-Met-oxazolone): 0.788

CUACUAGAAACAAUCGGUCUG [Fam1A.1 aminoacylation ribozyme variant]
self-aminoacylation (biotinyl-Ile-oxazolone): 0.673
self-aminoacylation (biotinyl-Trp-oxazolone): 0.625
self-aminoacylation (biotinyl-Val-oxazolone): 0.639
self-aminoacylation (biotinyl-Phe-oxazolone): 0.401
self-aminoacylation (biotinyl-Leu-oxazolone): 0.619
self-aminoacylation (biotinyl-Met-oxazolone): 0.687

CUACUCCAAACAAGCGGUCUG [Fam1A.1 aminoacylation ribozyme variant]
self-aminoacylation (biotinyl-Ile-oxazolone): 1.2
self-aminoacylation (biotinyl-Trp-oxazolone): 0.584
self-aminoacylation (biotinyl-Val-oxazolone): 1.14
self-aminoacylation (biotinyl-Phe-oxazolone): 2.15
self-aminoacylation (biotinyl-Leu-oxazolone): 0.802
self-aminoacylation (biotinyl-Met-oxazolone): 1.13

CUACUCCAAACAAUCGGUCUU [Fam1A.1 aminoacylation ribozyme variant]
self-aminoacylation (biotinyl-Ile-oxazolone): 0.864
self-aminoacylation (biotinyl-Trp-oxazolone): 1.2
self-aminoacylation (biotinyl-Val-oxazolone): 0.958
self-aminoacylation (biotinyl-Phe-oxazolone): 1.74
self-aminoacylation (biotinyl-Leu-oxazolone): 0.868
self-aminoacylation (biotinyl-Met-oxazolone): 0.803

Reference: the supplement of paper PMC9233669
